The values below come from paper PMC11710176 (Alzheimer's & Dementia, 2024).

The assay deals with tau oligomers (UniProt P10636 1-758). Nature of the assay: SPR; who was immobilised and the conditions not given. Conditions: both partners purified. (Surface plasmon resonance follows binding to a sensor surface in real time, without labels.)

Several values for one entry are separate records, joined by “and”; a condition that tells them apart may be missing. Equal entries are not always repeated.

B1: cellular prion protein (natural protein)
chain: not shown
notes: also called PrP^C; PrPC
A word on the Kd: it is a measure of binding affinity in units of concentration. For B1, the Kd is 20 nM and 50 nM.
